Reference: US20100144645A1, “COMPOSITIONS AND METHODS FOR ENHANCING […] POTENCY OF […]-COMPOUNDS, A[…] ADVERSE SIDE EFFECTS, AND […] ABUSE” (SHIRE LLC, priority 2006, published 2010)
Residues, ends and D or L forms follow the SMILES beside them. *: point of attachment. X1 = COc1ccc2c3c1OC1C(O*)=CCC4[C@@H](C2)N(C)CC[C@]314

Tests used:
[1] = Intranasal bioavailability of hydrocodone conjugates; conditions: rats, relative to hydrocodone
[2] = Oral bioavailability of hydrocodone conjugates (plasma hydrocodone plus hydromorphone); conditions: for bioavailabiltty (% HC) oral AUC / bioavailabiltty (% HC) oral Cmax: rats, relative to hydrocodone; for Oral:IN Index AUC: ratio of oral to IN AUC (% HC); for Oral:IN Index Cmax: ratio of oral to IN Cmax (% HC)
[3] = stability 90 C., 20 min (V, BP, TW, BS) of hydrocodone conjugates; conditions: for stability 90 C., 20 min BP: BP (abbreviation not defined); for stability 90 C., 20 min BS: BS (abbreviation not defined); for stability 90 C., 20 min TW: TW (abbreviation not defined); for stability 90 C., 20 min V: V (abbreviation not defined)
[4] = Intranasal bioavailability of hydromorphone conjugates; conditions: rats; for IN AUC %: corrected value calculated based on the bioavailability of the control (HM); for IN Cmax %: corrected value calculated based on the control (HM)
[5] = Oral bioavailability of hydromorphone conjugates; conditions: rats; for Oral AUC %: corrected value calculated based on the bioavailability of the control (HM); for Oral Cmax %: corrected value calculated based on the control (HM)

Row | SMILES | bioavailabiltty (% HC) IN AUC [1] | bioavailabiltty (% HC) IN Cmax [1] | bioavailabiltty (% HC) oral AUC [2] | bioavailabiltty (% HC) oral Cmax [2] | Oral:IN Index AUC [2] | Oral:IN Index Cmax [2] | stability 90 C., 20 min BP [3] | stability 90 C., 20 min BS [3] | stability 90 C., 20 min TW [3] | stability 90 C., 20 min V [3] | IN AUC % [4] | IN Cmax % [4] | Oral AUC % [5] | Oral Cmax % [5]
1 | CC[C@H](C)[C@H](NC(=O)[C@H](Cc1ccccc1)NC(=O)[C@H](Cc1ccccc1)NC(=O)[C@H](CCC(=O)O)NC(=O)[C@@H](N)CCC(=O)O)C(=O)OC1=CCC2[C@H]3Cc4ccc(OC)c5c4[C@@]2(CCN3C)C1O5 (stereo partly drawn) [Glu2-Phe2-Ile-HC] (H-EEFFI-X1) | 68 % HC | 76 % HC | 96 % HC | 129 % HC | 1.41 | 1.70 | 100 | 100 | 33 | 0 | – | – | – | –
2 | COc1ccc2c3c1OC1C(OC(=O)[C@H](Cc4ccccc4)NC(=O)[C@H](Cc4ccccc4)NC(=O)[C@H](Cc4ccccc4)NC(=O)[C@H](CCC(=O)O)NC(=O)[C@@H](N)CCC(=O)O)=CCC4[C@@H](C2)N(C)CC[C@]314 (stereo partly drawn) [Glu2-Phe3-HC, Glu2-Phe3-Hydrocodone] (H-EEFFF-X1) | 27 % HC | 47 % HC | 83 % HC | 89 % HC | 3.07 | 1.89 | 100 | 84 | 57 | 3 | – | – | – | –
3 | COc1ccc2c3c1OC1C(OC(=O)[C@H](Cc4ccccc4)NC(=O)CNC(=O)CNC(=O)[C@H](CCC(=O)O)NC(=O)[C@@H](N)CCC(=O)O)=CCC4[C@@H](C2)N(C)CC[C@]314 (stereo partly drawn) [Glu2-Gly2-Phe-HC] (H-EEGGF-X1) | 89 % HC | 97 % HC | 110 % HC | 112 % HC | 1.24 | 1.15 | 100 | 100 | 100 | 0 | – | – | – | –
4 | CC[C@H](C)[C@H](NC(=O)[C@H](CCC(=O)O)NC(=O)[C@H](CCC(=O)O)NC(=O)CNC(=O)CN)C(=O)OC1=CCC2[C@H]3Cc4ccc(OC)c5c4[C@@]2(CCN3C)C1O5 (stereo partly drawn) [Gly2-Glu2-Ile-HC] (H-GGEEI-X1) | 66 % HC | 77 % HC | 96 % HC | 119 % HC | 1.45 | 1.55 | 74 | 100 | 11 | 0 | – | – | – | –
5 | CC[C@H](C)[C@H](NC(=O)[C@@H]1CCCN1C(=O)[C@@H]1CCCN1C(=O)[C@H](CCCCN)NC(=O)[C@@H](N)CCCCN)C(=O)OC1=CCC2[C@H]3Cc4ccc(OC)c5c4[C@@]2(CCN3C)C1O5 (stereo partly drawn) [Lys2-Pro2-Ile-HC] (H-KKPPI-X1) | 68 % HC | 94 % HC | 80 % HC | 76 % HC | 1.18 | 0.81 | 72 | 100 | 66 | 0 | – | – | – | –
6 | CC[C@H](C)[C@H](NC(=O)[C@H](Cc1ccc(O)cc1)NC(=O)[C@@H](N)Cc1ccc(O)cc1)C(=O)OC1=CCC2[C@H]3Cc4ccc(OC)c5c4[C@@]2(CCN3C)C1O5 (stereo partly drawn) [Tyr-Tyr-Ile-HC] | 20 % HC | 34 % HC | 145 % HC | 234 % HC | 7.25 | 6.88 | 66 | 100 | 23 | 0 | – | – | – | –
7 | COc1ccc2c3c1OC1C(OC(=O)[C@H](Cc4ccccc4)NC(=O)[C@@H]4CCCN4C(=O)[C@@H](N)CC(C)C)=CCC4[C@@H](C2)N(C)CC[C@]314 (stereo partly drawn) [Leu-Pro-Phe-HC] | 83 % HC | 101 % HC | 106 % HC | 125 % HC | 1.28 | 1.24 | 100 | 100 | 100 | 2 | – | – | – | –
8 | CC[C@H](C)[C@H](NC(=O)[C@H](Cc1ccccc1)NC(=O)[C@H](Cc1ccccc1)NC(=O)[C@H](Cc1ccc(O)cc1)NC(=O)[C@@H](N)Cc1ccc(O)cc1)C(=O)OC1=CCC2[C@H]3Cc4ccc(OC)c5c4[C@@]2(CCN3C)C1O5 (stereo partly drawn) [Tyr2-Phe2-Ile-HC] (H-YYFFI-X1) | 26 % HC | 34 % HC | 113 % HC | 63 % HC | 4.35 | 1.85 | 5 | 50 | 5 | 0 | – | – | – | –
9 | CC[C@H](C)[C@H](NC(=O)[C@H](CC(C)C)NC(=O)[C@@H]1CCCN1)C(=O)OC1=CCC2[C@H]3Cc4ccc(OC)c5c4[C@@]2(CCN3C)C1O5 (stereo partly drawn) [Pro-Leu-Ile-HC] | 87 % HC | 101 % HC | 141 % HC | 172 % HC | – | – | 100 | 100 | 100 | 0 | – | – | – | –
10 | CC[C@H](C)[C@H](NC(=O)[C@@H]1CCCN1C(=O)[C@@H]1CCCN1C(=O)CNC(=O)CN)C(=O)OC1=CCC2[C@H]3Cc4ccc(OC)c5c4[C@@]2(CCN3C)C1O5 (stereo partly drawn) [Gly2-Pro2-Ile-HC] (H-GGPPI-X1) | 44 % HC | 56 % HC | 94 % HC | 121 % HC | 2.14 | 2.16 | 73 | 100 | 70 | 0 | – | – | – | –
11 | COc1ccc2c3c1OC1C(OC(=O)[C@H](CC(C)C)NC(=O)[C@@H]4CCCN4C(=O)[C@@H]4CCCN4)=CCC4[C@@H](C2)N(C)CC[C@]314 (stereo partly drawn) [Pro-Pro-Leu-HC] | 46 % HC | 48 % HC | 94 % HC | 108 % HC | 2.04 | 2.25 | 100 | 100 | 100 | 2 | – | – | – | –
12 | CC[C@H](C)[C@H](NC(=O)[C@H](CCCCN)NC(=O)[C@@H](N)CCCCN)C(=O)OC1=CCC2[C@H]3Cc4ccc(OC)c5c4[C@@]2(CCN3C)C1O5 (stereo partly drawn) [Lys-Lys-Ile-HC] | 68 % HC | 94 % HC | 80 % HC | 76 % HC | 1.18 | 0.81 | 100 | 97 | 96 | 0 | – | – | – | –
13 | CC[C@H](C)[C@H](NC(=O)[C@@H]1CCCN1)C(=O)N[C@H](C(=O)OC1=CCC2[C@H]3Cc4ccc(OC)c5c4[C@@]2(CCN3C)C1O5)[C@@H](C)CC (stereo partly drawn) [Pro-Ile-Ile-HC] | 86 % HC | 102 % HC | 104 % HC | 99 % HC | 1.21 | 0.97 | 47 | 100 | 83 | 0 | – | – | – | –
14 | CC[C@H](C)[C@H](NC(=O)[C@H](CC(=O)O)NC(=O)[C@H](CC(=O)O)NC(=O)[C@H](CCCCN)NC(=O)[C@@H](N)CCCCN)C(=O)OC1=CCC2[C@H]3Cc4ccc(OC)c5c4[C@@]2(CCN3C)C1O5 (stereo partly drawn) [Lys2-Asp2-Ile-HC] (H-KKDDI-X1) | 39 % HC | 56 % HC | 90 % HC | 121 % HC | 2.31 | 2.16 | 64 | 100 | 0 | 0 | – | – | – | –
15 | CC[C@H](C)[C@H](NC(=O)[C@H](Cc1ccc(O)cc1)NC(=O)[C@@H](N)Cc1ccc(O)cc1)C(=O)OC1=CCC2[C@H]3Cc4ccc(O)c5c4[C@@]2(CCN3C)C1O5 (stereo partly drawn) [YYI-HM] | – | – | – | – | – | – | – | – | – | – | 88% | 86% | 32% | 66%
16 | CC(C)C[C@H](NC(=O)[C@H](CCCCN)NC(=O)[C@@H](N)CCCCN)C(=O)OC1=CCC2[C@H]3Cc4ccc(O)c5c4[C@@]2(CCN3C)C1O5 (stereo partly drawn) [KKL-HM] | – | – | – | – | – | – | – | – | – | – | 87% | 96% | 24% | 50%
17 | CC(C)[C@H](NC(=O)CNC(=O)CN)C(=O)OC1=CCC2[C@H]3Cc4ccc(O)c5c4[C@@]2(CCN3C)C1O5 (stereo partly drawn) [GGV-HM] | – | – | – | – | – | – | – | – | – | – | 51% | 73% | 53% | 63%
